# In patent US5965697, “Disaggregated mutant human RANTES” (British Biotech Pharmaceuticals Limited, dated 1999):
# Changes are numbered by the printed parent chain. “And” between values parts separate entries of the source, which are not always exact repeats. Identical values can stand only once.
# B1: wild-type human RANTES (hRANTES) (ligand)
# chain: SPYSSDTTPCCFAYIARPLPRAHIKEYFYTSGKCSNPAVVFVTRKNRQVCANPEKKWVREYINSLEMS
# B2: hRANTES E26>A (ligand)
# chain: B1 chain with E26A
# B3: hRANTES E26>A E66>S (ligand)
# chain: B1 chain with E26A, E66S
# B4: hRANTES E66>S (ligand)
# chain: B1 chain with E66S
# How the values were obtained:
# [1] = target: wild-type human RANTES (hRANTES) (human); assay: sedimentation equilibrium AUC in PBS, 0.1 mg/ml; self-association (monomer 7850 Da)
# [2] = target: T-cell receptor complex (tyrosine kinase pathway) on CD3+ Jurkat cells and cultured human T lymphocytes (human); conditions: scale: % of cells expressing the cell surface marker
# [3] = target: cell-surface proteoglycans; assay: radioligand binding, 0.125 nM 125I-hRANTES on CHO cells, filter harvest
# [4] = target: the molecule itself; assay: sedimentation equilibrium AUC in PBS, 0.5 mg/ml; self-association
# Description: Mutagenesis of pERM1 was performed according to the method of Kunkel et al., (Methods in Enzymology, 154: 367–382; 1987). The oligonucleotides BB-35875 (SEQ ID NO. 14; 5'-[…] […] GTGG-3') and BB-37015 (SEQ ID No. 15; 5'-[…] ACATTGA-CAA […]-3') were used to construct the hRANTES Glu26>Ala and Glu66>Ser variant genes respectively. A combination of both BB-35875 and BB-37015 was used to […]. The samples were spun at 15,000 r.p.m., 25° C. for 18 hours to reach equilibrium. Final solute distributions were recorded at 235 nm, 280 nm and 295 nm as a function of radius. The scan was repeated after a further three hours of centrifugation to confirm that equilibrium had been achieved. The final solute distribution ASCII data were captured and the Microcal Origin software for the Beckman XLA analytical ultracentrifuge was used to fit the data to a model assuming a single ideal species (Ideal1) to provide an estimate of the weight average molecular weight.
# [5] = target: G-protein coupled receptors (GPCRs) through which hRANTES acts
# [6] = target: cell-surface proteoglycans; assay: radioligand binding, 0.2 nM 125I-hRANTES E66>S on CHO cells, filter harvest
# [7] = target: T-cell receptor complex (tyrosine kinase pathway) on CD3+ Jurkat cells and cultured human T lymphocytes (human)
Molecule,"% of cells expressing the cell surface marker (CD69, CD11b, CD11c) on cultured human T lymphocytes, 5 µM [2]",Average molecular weight by AUC (Da) [4],further results
wild-type human RANTES (hRANTES) (ligand),–,–,Average molecular weight by AUC (Da) [1]: > 160000 Da
B1,99.1,–,total counts bound [3]: 5730 cpm
B2,–,33000 Da,IC50 of p24 antigen production by PBMC infected with HIV-1 RR [5]: 28 nM and 0.22 µg/ml
B3,–,15000 Da,–
B4,0.39,14000 Da,total counts bound [6]: 18300 cpm; calcium mobilisation in CD3+ Jurkat cells [7]: 200 fold
